From patent US20030078221, “High affinity nucleic acid ligands of complement system proteins” (Gilead Sciences, Inc., published 2003)

How the values were obtained:
Complement C5 [1] = target: T1, Complement C5 (Homo sapiens, UniProt P01031;P01031 P01031:19-673,P01031:678-1676); assay: filter; MgPBS 37C; conditions: tags: Quidel
Description: (§1) Individual cloned DNA was T7 transcribed with α-[³²P]-ATP and the full length [³²P]-2′-NH₂-RNA or 2′-F-RNA was gel-purified (as above). RNA was suspended at approximately 5,000 cpm per 30 μL sample (<10 pM), and aliquots were incubated with various concentrations of C1q, C3 or C5 in MgPBS for 10 minutes at 37° C. Samples were then filtered through nitrocellulose, the filters washed with buffer and dried under an infrared lamp, and counted with addition of scintillation fluid (Ecoscint A, National Diagnostics, Atlanta, Ga.). A background sample of RNA alone was run in parallel. […] Filters were washed and counted.
Sequences were grouped according to homology and function.

Complement C5 [2] = target: T1, Complement C5; assay: inhibition; inhibition of C5a release, zymosan-treated human serum; conditions: tags: Quidel
Description: Nucleic Acid Ligand-C5 interaction that inhibits cleavage of C5 would prevent formation of the C5b and MAC assembly. […] For this experiment, dilutions of clone C6 were incubated with whole human serum in GVB⁺⁺ (veronal-buffered saline containing calcium, magnesium and 1% gelatin) plus addition of zymosan for 30 minutes at 37° C. The samples were then quenched with EDTA-buffer and spun, and supernatants were assayed for C5a by radioimrnmunoassay (RIA) (Wagner and Hugli (1984) Anal. Biochem. 136:75).

Complement C5 [3] = target: T1, Complement C5; assay: filter; Kd not given; conditions: tags: Quidel
Complement C1q = Complement C1q (UniProt P02745;P02746;P02747 P02745:23-245,P02746:28-253,P02747:29-245); assay: filter; MgPBS 37C; text states range 0.29-3.9 nM for best ligands; conditions: tags: Quidel; chain copies: 6
Description: as §1

Chain of Complement C1q (P02745 23-245, chain 1 of 3): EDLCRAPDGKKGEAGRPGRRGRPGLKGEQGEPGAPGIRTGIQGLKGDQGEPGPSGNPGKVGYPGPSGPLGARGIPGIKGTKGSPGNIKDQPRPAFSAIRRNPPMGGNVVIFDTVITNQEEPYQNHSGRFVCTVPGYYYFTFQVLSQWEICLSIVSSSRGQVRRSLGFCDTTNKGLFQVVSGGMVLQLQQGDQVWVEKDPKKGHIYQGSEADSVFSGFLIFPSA
Chain of Complement C1q (P02746 28-253, chain 2 of 3): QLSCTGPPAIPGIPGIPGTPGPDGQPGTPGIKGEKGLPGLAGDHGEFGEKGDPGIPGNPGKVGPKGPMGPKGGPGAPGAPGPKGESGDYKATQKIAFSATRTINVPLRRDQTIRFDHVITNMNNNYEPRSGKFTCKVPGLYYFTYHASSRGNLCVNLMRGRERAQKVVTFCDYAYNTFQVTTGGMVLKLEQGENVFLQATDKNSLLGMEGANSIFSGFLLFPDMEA
Chain of Complement C1q (P02747 29-245, chain 3 of 3): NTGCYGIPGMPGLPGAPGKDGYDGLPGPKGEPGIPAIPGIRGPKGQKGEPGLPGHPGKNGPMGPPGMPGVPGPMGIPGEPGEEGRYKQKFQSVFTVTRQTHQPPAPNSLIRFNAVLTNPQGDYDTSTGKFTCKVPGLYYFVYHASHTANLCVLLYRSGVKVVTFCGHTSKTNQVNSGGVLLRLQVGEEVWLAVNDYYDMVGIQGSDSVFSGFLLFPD

B1: C6 (ssRNA)
RNA: GGGAGGACGAUGCGGUCUCAUGCGUCGAGUGUGAGUUUACCUUCGUCAGACGACUCGCCCGA
modifications: 2'-F pyrimidines
Complement C5 [1]
  Kd: 30 nM
Complement C5 [2]
  Ki: ~100 nM

## GACGAUGCGGUCUCAUGCGUCGAGUGUGAGUUUACCUUCGUC (ssRNA, 2'-F pyrimidines) [C6 42mer truncate]
Complement C5 [3]
  binding result: binds

B2: C1q clone 23 (ssRNA)
RNA: GGGAGGACGAUGCGGCACUCACCUUCAUAUUGGCCGCCAUCCCCAGGGUUGAGCCCAGACACAGCAGACGACUCGCCCGA
modifications: 2'-NH2 pyrimidines
Complement C1q
  Kd: 23 nM
